Assay results published in article PMC4215112 (Clinical and Experimental Allergy, 2014).

Key:
[1] = target: T1, Bet v 1 (isoform not stated for the experiment) (birch, UniProt P15494); assay: ELISA; inhibition ELISA: binding of scFv-Fcε to immobilized Bet v 1 in the presence of the identified peptides in soluble form; conditions: one partner purified
T1 construct: also called immobilized Bet v 1

[2] = target: T2, Recombinant Aln g 1.0101 (Alnus glutinosa, isoform Aln g 1.0101, UniProt P38948); assay: ELISA; allergens coated at 5 μg/mL in PBS; scFv-Fcε from HEK293 supernatant detected with HRP anti-IgE antiserum; duplicates; conditions: one partner purified
T2 construct: By its allergen name from Alnus glutinosa (alder); source: bought: Biomay (Vienna, Austria), recombinant
T2 sequence (P38948 whole entry, looked up, canonical isoform): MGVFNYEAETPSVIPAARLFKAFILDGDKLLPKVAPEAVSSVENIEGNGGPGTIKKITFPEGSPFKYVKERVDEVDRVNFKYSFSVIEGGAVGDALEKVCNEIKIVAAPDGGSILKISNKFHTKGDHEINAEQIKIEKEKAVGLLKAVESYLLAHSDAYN

Binder	binding result [1]	binding result [2]
M0418 scFv-Fcε fusion protein (Fc fusion, human, as the VH of m14; (Gly4Ser)3 linker as told for the M0418 scFv construct, written out from the printed formula; as the VL of m14; also called the M0418 construct; IgE clone M0418; source: HEK293, transfected, in filtered supernatant; not shown: Fc (human IgE, second, third and fourth constant domains, CHε2-4), C-terminal, kept) VH: QVQLVQSGAEVKKPGESLKISCKGSEYSFPNYWIAWVRQMPGKGLEWMGMIYPGDSDTRYSPSFQGQVNISADKSSRTAFLEWSSLKASDSATYFCARLGGQLWNSYYYYYYMDVWGKGTTVTVSS VL: SYELTQPPSASGTPGQRVTISCSGSSSNIGGNTVNWYQQVPGTAPRLLIYKNNQRPSGVPDRFSGSKSGTSASLAISGLRSEDEADYYCEAWDGGLRGGVFGGGTKLTVL	binds	no binding
B14 scFv-Fcε fusion protein (Fc fusion, human, as the VH of m13; as the VL of m13; also called B14 scFv-CHε2-4 fusion protein; source: HEK293, transfected, in filtered supernatant; not shown: Fc (human IgE, second, third and fourth constant domains, CHε2-4), C-terminal, kept) VH: EVQLVQSGAEVKKPGESLKISCKGSEYSFPNYWIAWVRQMPGKGLEWMGMIYPGDSDTRYSPSFQGQVNISADKSSRTAFLEWSSLKASDSATYFCARLGGQLWNSYYYYYMDVWGKGTTVTVSS VL: QSVLTQPPSVSVSPGQTARITCSGDKLGNKYAAWYQQKPGQSPVLVIYQDSKRPSGIPERFSGSNSGNTATLTISGTQAMDEADYYCQAWDSSTFYVFGTGTKLTVL	binds	–
B13 scFv-Fcε fusion protein (Fc fusion, as the VH of m12; as the VL of m12; also called B13 scFv-CHε2-4 fusion protein; source: HEK293, transfected, in filtered supernatant; not shown: Fc (human IgE, second, third and fourth constant domains, CHε2-4), C-terminal, kept) VH: not shown VL: SYELTQPPSVSGSPGQSVTISCTGTSSDVGGYNLVSWYQQHPGKAPRLMIYEDTKRPSGVSHRFSGSKSGNTASLTISGLQAEDEADYYCYSYATGRPSRLFGGGTKLTVL	binds	–
